Results as given in US20250381241A1 (Dana-Farber, published 2025).

Molecular target: T1, WDR43 (human, UniProt Q15061 1-677, limits assumed)
T1 construct: Called a core transcriptional assembly factor at TSS; Endogenous protein from lysate
T1 sequence (looked up): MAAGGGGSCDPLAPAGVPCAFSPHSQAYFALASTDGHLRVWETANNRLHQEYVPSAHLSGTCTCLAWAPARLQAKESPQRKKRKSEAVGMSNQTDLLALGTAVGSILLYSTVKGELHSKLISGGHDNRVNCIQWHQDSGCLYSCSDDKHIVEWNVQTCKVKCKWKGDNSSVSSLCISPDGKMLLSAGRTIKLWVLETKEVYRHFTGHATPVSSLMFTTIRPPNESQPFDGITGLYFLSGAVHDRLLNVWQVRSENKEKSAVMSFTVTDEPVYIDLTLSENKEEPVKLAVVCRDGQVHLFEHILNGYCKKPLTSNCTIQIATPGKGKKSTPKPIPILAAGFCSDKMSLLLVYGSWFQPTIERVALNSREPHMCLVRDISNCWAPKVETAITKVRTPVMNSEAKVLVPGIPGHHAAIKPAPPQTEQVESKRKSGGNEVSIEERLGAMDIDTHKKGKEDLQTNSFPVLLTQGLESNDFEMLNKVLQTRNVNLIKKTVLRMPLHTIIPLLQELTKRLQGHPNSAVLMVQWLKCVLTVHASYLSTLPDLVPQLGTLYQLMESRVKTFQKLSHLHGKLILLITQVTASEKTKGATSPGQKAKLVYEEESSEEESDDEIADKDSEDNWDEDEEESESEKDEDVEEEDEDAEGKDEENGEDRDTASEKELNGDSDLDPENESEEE
Assay: co-immunoprecipitation of ectopically expressed HA-tagged RIOK2 with monoclonal anti-HA antibody beads, then LC-MS/MS; spectral counts normalised to the immunoprecipitated HA-RIOK2, fold change with respect to WT
Procedure: For collection of cellular lysates, lysis was similarly performed as described above. 5% of the supernatant was saved as Input, and pre-washed monoclonal anti-HA antibody tagged-agarose beads slurry (A2095, Sigma Aldrich) was added to the rest of the supernatant and incubated at 4° C. on a rocker O/N. The beads were washed with RIPA lysis buffer, resuspended in 2× laemmli buffer, boiled at 95° C. for 10 minutes, and immediately loaded for SDS-PAGE separation. Electrophoresis was performed until the proteins ran 1/6th of the entire gel size. The gel was Coomassie stained for 1 h at 25° C., de-stained at 4° C. O/N, and were cut with sterile blades, washed with MS-grade acetonitrile solution and submitted for Mass Spectrometry analysis at BIDMC Mass Spectrometry Core. […]
Gel separated protein samples were reduced with 55 mM DTT, alkylated with 10 mM iodoacetamide (Sigma-Aldrich), and digested O/N with TPCK modified trypsin/LysC (Promega) at pH=8.3. […] 3 μL of the digested protein samples were analyzed in positive ion mode via microcapillary tandem mass spectrometry (LC-MS/MS) using a high resolution hybrid QExactive HF Orbitrap Mass Spectrometer (Thermo Fisher Scientific) via HCD with data-dependent analysis (DDA) with 1 MS1 scan followed by 8 MS2 scans per cycle (Top 8). […]

B1: ΔTAD2 (enzyme, not shown: small tags and cut ends)
chain: MGKVNVAKLRYMSRDDFRVLTAVEMGMKNHEIVPGSLIASIASLKHGGCNKVLRELVKHKLIAWERTKTVQGYRLTRQVVESVGNQMGVGKESDIYIVANEEGQQFALKLHRLGRTSFRNLKNKRDYHKHRHNVSWLYLSRLSAMKEFAYMKALYERKFPVPKPIDYNRHAVVMELINGYPLCQIHHVEDPASVYDEAMELIVKLANHGLIHGDFNEFNLILDESDHITMIDFPQMVSTSHPNAEWYFDRDVKCIKDFFMKRFSYESELFPTFKDIRREDTLDVEVSASGYTKEMQADDELLHPLGPDDKNIETKEGSEFSFSDGEVAEKAEVYGSENESERNCLEESEGCYCRSSGDPEQIKEDSLSEESADARSFEMTEFNQALEEIKGQVVENNSVTEFSEEKNRTENYNRQDGQRVQGGVPAGSDEYEDECPHLIALSSLNREFRPFRDEENVGAMNQYRTRTLSITSSGSAVSCSTIPPELVKQKVKRQLTKQQKSAVRRRLQKGEANIFTKQRRENMQNIKSSLEAASFWGE
notes: The text defines it as N-terminal HA-tagged RIOK2 with amino acids 77-90 deleted; also called HA-ΔTAD2
  binding result: no binding
